Source: paper PMC11364024, “Binding structures of SERF1a with NT17-polyQ peptides of huntingtin exon 1 revealed by SEC-SWAXS, NMR and molecular simulation” (IUCrJ, 2024)

What was measured:
[1] = target: the molecule itself; assay: SEC-SWAXS (size-exclusion column with small- and wide-angle X-ray scattering, UV-Vis absorption and dRI); single-component samples (SERF1a 4.1 mg/ml; Htt-1 10 mg/ml injected, diluted ca. 2-4 fold on the column); sodium phosphate buffer pH 7.4; 283 K; aggregation number from zero-angle intensity I0 and the concentration from optical data
[2] = target: T1, human small EDRK-rich factor 1a (SERF1a) (human); assay: SEC-SWAXS (size-exclusion column with small- and wide-angle X-ray scattering, UV-Vis absorption and dRI); mixtures of SERF1a with NT17 or with Htt-3 at 1:2 molar ratio, eluted together; sodium phosphate buffer pH 7.4; 283 K; composition of the complex from I0, UV-Vis absorption at 214 nm and dRI over the elution peak; settings: both partners purified
T1 construct: source: purified from the human SERF1a gene as reported previously (Tsai et al., 2023)
T1 chain: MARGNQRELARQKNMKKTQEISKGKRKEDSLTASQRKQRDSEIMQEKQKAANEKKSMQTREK

B1: Htt-1 (NT17-polyQ peptide of 33 amino acids with four leucines in the polyQ region) (peptide)
peptide: MATLEKLMKAFESLKSFLQQLQQQLQQLQQQYK
notes: huntingtin exon 1: NT17 followed by a 14-residue polyQ region in which four leucines replace the residues of position a/d to enhance alpha-helix formation; two C-terminal residues added after the polyQ region; not of huntingtin; source: synthetic peptide (peptide synthesis core, Genomics Research Center, Academia Sinica)
B1 was tested, and the “stoichiometry N” value [1] was 2.

B2: Htt-3 (NT17-polyQ peptide of 33 amino acids with four prolines in the polyQ region) (peptide)
peptide: MATLEKLMKAFESLKSFPQQPQQQPQQPQQQYK
notes: huntingtin exon 1: NT17 followed by a 14-residue polyQ region in which the positions a/d are substituted by four prolines to suppress alpha-helix formation; two C-terminal residues added after the polyQ region; not of huntingtin; source: synthetic peptide (peptide synthesis core, Genomics Research Center, Academia Sinica)
For B2, the “stoichiometry N” value [2] was ~1 Htt-3 per SERF1a.

B3: NT17 (the N-terminal first 17 amino acids of the Httex1 protein) (peptide)
peptide: MATLEKLMKAFESLKSF
notes: huntingtin exon 1 (Httex1), N-terminal first 17 amino acids; also called NT17 fragment; source: synthetic peptide (peptide synthesis core, Genomics Research Center, Academia Sinica)
For B3, the “stoichiometry N” value [2] was ~2 NT17 per SERF1a.
